Here are results for five sequences from the supplement of paper PMC5998384.

The subject of series [1] is HeLa Kyoto. Description: melting temperature (median over replicates), in situ; higher = more thermally stable.
Series [2] deals with HeLa Kyoto. The experiment in a line: solubility change mitosis vs G1/S (difference of NP-40 vs SDS log2 ratios) (log2 ratio difference); higher = more soluble in mitosis.
Series [3] has as its system HeLa Kyoto. The experiment in a line: solubility in G1/S (NP-40 vs SDS abundance) (log2 ratio); higher = more soluble. As to conditions: cell cycle stage: G1/S.
Series [4] deals with HeLa Kyoto. The experiment in a line: thermal stability score vs G1/S (z-score of summed log2 fold changes over temperatures); higher = more thermally stable than in G1/S.
Where [5] appears, read: cell cycle stage: early G1 (4.5 h after nocodazole release).
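Throughout, for melting temperature (median over replicates), in situ: HeLa Kyoto cells synchronized by double thymidine or nocodazole block, proteins quantified by TMT10plex mass spectrometry, three independent biological replicates.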
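Throughout, for solubility change mitosis vs G1/S (difference of NP-40 vs SDS log2 ratios): synchronized HeLa Kyoto cells (double thymidine block for G1/S, nocodazole release for mitosis), protein amounts in NP-40 versus SDS lysates quantified by mass spectrometry, three biological replicates.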
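Throughout, for solubility in G1/S (NP-40 vs SDS abundance): HeLa Kyoto cells arrested at G1/S by double thymidine block, proteins quantified by TMT10plex mass spectrometry in mild NP-40 versus SDS extracts, three biological replicates.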
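Throughout, for thermal stability score vs G1/S (z-score of summed log2 fold changes over temperatures): synchronized HeLa Kyoto cells, proteins quantified by TMT10plex mass spectrometry, three biological replicates, mitosis taken 0.5 h after nocodazole release, G1/S directly after double thymidine block.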

Take “MTSIIKLTTLSGVQEESALCYLLQVDEFRFLLDCGWDEHFSMDIIDSLRKHVHQIDAVLLSHPDPLHLGALPYAVGKLGLNCAIYATIPVYKMGQMFMYDLYQSRHNTEDFTLFTLDDVDAAFDKIQQLKFSQIVNLKGKGHGLSITPLPAGHMIGGTIWKIVKDGEEEIVYAVDFNHKREIHLNGCSLEMLSRPSLLITDSFNATYVQPRRKQRDEQLLTNVLETLRGDGNVLIAVDTAGRVLELAQLLDQIWRTKDAGLGVYSLALLNNVSYNVVEFSKSQVEWMSDKLMRCFEDKRNNPFQFRHLSLCHGLSDLARVPSPKVVLASQPDLECGFSRDLFIQWCQDPKNSIILTYRTTPGTLARFLIDNPSEKITEIELRKRVKLEGKELEEYLEKEKLKKEAAKKLEQSKEADIDSSDESDIEEDIDQPSAHKTKHDLMMKGEGSRKGSFFKQAKKSYPMFPAPEERIKWDEYGEIIKPEDFLVPELQATEEEKSKLESGLTNGDEPMDQDLSDVPTKCISTTESIEIKARVTYIDYEGRSDGDSIKKIINQMKPRQLIIVHGPPEASQDLAECCRAFGGKDIKVYMPKLHETVDATSETHIYQVRLKDSLVSSLQFCKAKDAELAWIDGVLDMRVSKVDTGVILEEGELKDDGEDSEMQVEAPSDSSVIAQQKAMKSLFGDDEKETGEESEIIPTLEPLPPHEVPGHQSVFMNEPRLSDFKQVLLREGIQAEFVGGVLVCNNQVAVRRTETGRIGLEGCLCQDFYRIRDLLYEQYAIV [CPSF2]”: the melting temperature with HeLa Kyoto [1] (cell cycle stage: G1/S) worked out at 48.7 °C; in the series on HeLa Kyoto [1] (cell cycle stage: mitosis), 50.3 °C. Further, the “solubility change mitosis (log2)” value in the series with HeLa Kyoto [2] came to 0.0805. In addition, the “solubility in G1/S (log2)” value in the series on HeLa Kyoto [3] is -0.409. In addition, the results for the thermal stability score in the series on HeLa Kyoto [4] (setting [5]) and in the series on HeLa Kyoto [4] (cell cycle stage: mitosis) were -0.0481 and 1.62, respectively.

Regarding “MTSLTQRSSGLVQRRTEASRNAADKERAAGGGAGSSEDDAQSRRDEQDDDDKGDSKETRLTLMEEVLLLGLKDREGYTSFWNDCISSGLRGCMLIELALRGRLQLEACGMRRKSLLTRKVICKSDAPTGDVLLDEALKHVKETQPPETVQNWIELLSGETWNPLKLHYQLRNVRERLAKNLVEKGVLTTEKQNFLLFDMTTHPLTNNNIKQRLIKKVQEAVLDKWVNDPHRMDRRLLALIYLAHASDVLENAFAPLLDEQYDLATKRVRQLLDLDPEVECLKANTNEVLWAVVAAFTK [GOLPH3]”, the melting temperature is 51.9 °C in the series with HeLa Kyoto [1] (cell cycle stage: G1/S) and 51.5 °C in the series with HeLa Kyoto [1] (cell cycle stage: mitosis). The “solubility change mitosis (log2)” value with HeLa Kyoto [2] was -0.137. The “solubility in G1/S (log2)” value in the series with HeLa Kyoto [3] came to 0.434. For the same sequence, the thermal stability score with HeLa Kyoto [4] (setting [5]) was 0.551; with HeLa Kyoto [4] (cell cycle stage: mitosis), -0.641.

In the case of “MTSMASLFSFTSPAVKRLLGWKQGDEEEKWAEKAVDALVKKLKKKKGAMEELEKALSSPGQPSKCVTIPRSLDGRLQVSHRKGLPHVIYCRVWRWPDLQSHHELKPLDICEFPFGSKQKEVCINPYHYKRVESPVLPPVLVPRHNEFNPQHSLLVQFRNLSHNEPHMPQNATFPDSFHQPNNTPFPLSPNSPYPPSPASSTYPNSPASSGPGSPFQLPADTPPPAYMPPDDQMGQDNSQPMDTSNNMIPQIMPSISSRDVQPVAYEEPKHWCSIVYYELNNRVGEAFHASSTSVLVDGFTDPSNNKSRFCLGLLSNVNRNSTIENTRRHIGKGVHLYYVGGEVYAECLSDSSIFVQSRNCNFHHGFHPTTVCKIPSSCSLKIFNNQEFAQLLAQSVNHGFEAVYELTKMCTIRMSFVKGWGAEYHRQDVTSTPCWIEIHLHGPLQWLDKVLTQMGSPLNPISSVS [SMAD5]”, the melting temperature in the series on HeLa Kyoto [1] (cell cycle stage: G1/S) amounted to 50.3 °C; in the series with HeLa Kyoto [1] (cell cycle stage: mitosis) it was 50 °C. In addition, the “solubility change mitosis (log2)” value with HeLa Kyoto [2] was -0.0922. In addition, in the series on HeLa Kyoto [3], the “solubility in G1/S (log2)” value was -0.0752. The thermal stability score in the series with HeLa Kyoto [4] (setting [5]) amounted to 0.616; in the series on HeLa Kyoto [4] (cell cycle stage: mitosis), 0.53.

In the case of “MTSMTQSLREVIKAMTKARNFERVLGKITLVSAAPGKVICEMKVEEEHTNAIGTLHGGLTATLVDNISTMALLCTERGAPGVSVDMNITYMSPAKLGEDIVITAHVLKQGKTLAFTSVDLTNKATGKLIAQGRHTKHLGN [ACOT13]”, the melting temperature with HeLa Kyoto [1] (cell cycle stage: G1/S) was determined as 56.4 °C; in the series on HeLa Kyoto [1] (cell cycle stage: mitosis) it was 57.7 °C. Besides, in the series with HeLa Kyoto [2], the “solubility change mitosis (log2)” value was -0.0848. The “solubility in G1/S (log2)” value in the series on HeLa Kyoto [3] stood at 0.372. For the same sequence, the values for the thermal stability score in the series with HeLa Kyoto [4] (setting [5]) and with HeLa Kyoto [4] (cell cycle stage: mitosis) were -1.62 and -1.82, respectively.

Take “MTSPAAAQSREIDCLSPEAQKLAEARLAAKRAARAEAREIRMKELERQQKEEDSERYSRRSRRNTSASDEDERMSVGSRGSLRVEERPEKDFTEKGSRNMPGLSAATLASLGGTSSRRGSGDTSISIDTEASIREIKELNELKDQIQDVEGKYMQGLKEMKDSLAEVEEKYKKAMVSNAQLDNEKTNFMYQVDTLKDMLLELEEQLAESRRQYEEKNKEFEREKHAHSILQFQFAEVKEALKQREEMLEKHGIILNSEIATNGETSDTLNNVGYQGPTKMTKEELNALKSTGDGTLGRASEVEVKNEIVANVGKREILHNTEKEQHTEDTVKDCVDIEVFPAGENTEDQKSSEDTAPFLGTLAGATYEEQVQSQILESSSLPENTVQVESNEVMGAPDDRTRTPLEPSNCWSDLDGGNHTENVGEAAVTQVEEQAGTVASCPLGHSDDTVYHDDKCMVEVPQELETSTGHSLEKEFTNQEAAEPKEVPAHSTEVGRDHNEEEGEETGLRDEKPIKTEVPGSPAGTEGNCQEATGPSTVDTQNEPLDMKEPDEEKSDQQGEALDSSQKKTKNKKKKNKKKKSPVPVETLKDVKKELTYQNTDLSEIKEEEQVKSTDRKSAVEAQNEVTENPKQKIAAESSENVDCPENPKIKLDGKLDQEGDDVQTAAEEVLADGDTLDFEDDTVQSSGPRAGGEELDEGVAKDNAKIDGATQSSPAEPKSEDADRCTLPEHESPSQDISDACEAESTERCEMSEHPSQTVRKALDSNSLENDDLSAPGREPGHFNPESREDTRGGNEKGKSKEDCTMS [LRRFIP1]”: in the series on HeLa Kyoto [1] (cell cycle stage: G1/S), the melting temperature is 58.7 °C. For the same sequence, the “solubility change mitosis (log2)” value in the series with HeLa Kyoto [2] worked out at 0.0557. In the series with HeLa Kyoto [3], the “solubility in G1/S (log2)” value came out at 0.265. Further, the results for the thermal stability score in the series with HeLa Kyoto [4] (setting [5]) and in the series on HeLa Kyoto [4] (cell cycle stage: mitosis) were -2.05 and -2.56, respectively.
